Experimental data published in patent US20250084142A1 (INTARCIA THERAPEUTICS, published 2025).
Starred links: 1 amine or outer side, 2 acyl side, 3 side chain; linkers in the order of their positions; H or OH if unused. Non-standard residues stand in square brackets, D forms with d. Groups on a side chain read outwards from the residue. No end group written: not given here. *: point of attachment. dpeg = —[CO(CH2)O(CH2)2O(CH2)NH]— spacer, O=C(COCCOCN[*:1])[*:2]; C20 diacid = O=C(O)CCCCCCCCCCCCCCCCCCC(=O)*; γGlu = O=C(O)[C@H](CCC(=O)[*:2])N[*:1]; NMeY = CN[C@@H](Cc1ccc(O)cc1)C(=O)O

T1: NPY5R
T1 sequence (Q15761 1-445, species assumed, looked up): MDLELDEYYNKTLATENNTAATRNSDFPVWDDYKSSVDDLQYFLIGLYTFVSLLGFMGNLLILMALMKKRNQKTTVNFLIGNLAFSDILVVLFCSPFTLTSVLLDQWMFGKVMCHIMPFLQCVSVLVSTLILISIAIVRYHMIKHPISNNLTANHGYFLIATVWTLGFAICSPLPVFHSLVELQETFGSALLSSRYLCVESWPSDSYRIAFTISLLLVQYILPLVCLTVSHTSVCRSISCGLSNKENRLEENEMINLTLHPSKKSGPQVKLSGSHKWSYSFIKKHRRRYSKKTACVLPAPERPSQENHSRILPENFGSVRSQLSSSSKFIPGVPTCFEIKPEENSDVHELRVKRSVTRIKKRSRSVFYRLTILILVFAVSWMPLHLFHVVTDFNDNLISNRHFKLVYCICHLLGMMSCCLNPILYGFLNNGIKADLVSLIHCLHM

T2: NPY2R
T2 sequence (P49146 1-381, species assumed, looked up): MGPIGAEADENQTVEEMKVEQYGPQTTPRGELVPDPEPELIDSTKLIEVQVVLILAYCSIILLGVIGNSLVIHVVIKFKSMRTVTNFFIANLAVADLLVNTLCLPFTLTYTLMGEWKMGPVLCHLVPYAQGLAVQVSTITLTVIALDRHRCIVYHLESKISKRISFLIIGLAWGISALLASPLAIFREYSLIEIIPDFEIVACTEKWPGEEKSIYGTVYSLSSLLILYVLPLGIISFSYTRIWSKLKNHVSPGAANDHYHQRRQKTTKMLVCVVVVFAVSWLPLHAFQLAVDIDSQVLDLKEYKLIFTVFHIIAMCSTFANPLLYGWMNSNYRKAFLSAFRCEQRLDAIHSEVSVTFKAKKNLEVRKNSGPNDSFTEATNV

B1: Compound A19 (peptide)
peptide: PKPEKPGK([γGlu-γGlu-C20 diacid])DASPEEWNRYYKDLRHYLNWLTRQRF-NH2
modifications: N-terminus assumed
SMILES: CC(C)C[C@H](NC(=O)[C@H](CC(=O)O)NC(=O)[C@H](CCCCN)NC(=O)[C@H](Cc1ccc(O)cc1)NC(=O)[C@H](Cc1ccc(O)cc1)NC(=O)[C@H](CCCNC(=N)N)NC(=O)[C@H](CC(N)=O)NC(=O)[C@H](Cc1c[nH]c2ccccc12)NC(=O)[C@H](CCC(=O)O)NC(=O)[C@H](CCC(=O)O)NC(=O)[C@@H]1CCCN1C(=O)[C@H](CO)NC(=O)[C@H](C)NC(=O)[C@H](CC(=O)O)NC(=O)[C@H](CCCCNC(=O)CC[C@H](NC(=O)CC[C@H](NC(=O)CCCCCCCCCCCCCCCCCCC(=O)O)C(=O)O)C(=O)O)NC(=O)CNC(=O)[C@@H]1CCCN1C(=O)[C@H](CCCCN)NC(=O)[C@H](CCC(=O)O)NC(=O)[C@@H]1CCCN1C(=O)[C@H](CCCCN)NC(=O)[C@@H]1CCCN1)C(=O)N[C@@H](CCCNC(=N)N)C(=O)N[C@@H](Cc1c[nH]cn1)C(=O)N[C@@H](Cc1ccc(O)cc1)C(=O)N[C@@H](CC(C)C)C(=O)N[C@@H](CC(N)=O)C(=O)N[C@@H](Cc1c[nH]c2ccccc12)C(=O)N[C@@H](CC(C)C)C(=O)N[C@H](C(=O)N[C@@H](CCCNC(=N)N)C(=O)N[C@@H](CCC(N)=O)C(=O)N[C@@H](CCCNC(=N)N)C(=O)N[C@@H](Cc1ccccc1)C(N)=O)[C@@H](C)O
B2: Compound A8 (peptide)
peptide: PKPEAPGKDASPK([γGlu-γGlu-C20 diacid])EWNRYYADARHYLNWLTRQR[NMeY]-NH2
modifications: N-terminus assumed
SMILES: CC(C)C[C@H](NC(=O)[C@H](Cc1ccc(O)cc1)NC(=O)[C@H](Cc1c[nH]cn1)NC(=O)[C@H](CCCNC(=N)N)NC(=O)[C@H](C)NC(=O)[C@H](CC(=O)O)NC(=O)[C@H](C)NC(=O)[C@H](Cc1ccc(O)cc1)NC(=O)[C@H](Cc1ccc(O)cc1)NC(=O)[C@H](CCCNC(=N)N)NC(=O)[C@H](CC(N)=O)NC(=O)[C@H](Cc1c[nH]c2ccccc12)NC(=O)[C@H](CCC(=O)O)NC(=O)[C@H](CCCCNC(=O)CC[C@H](NC(=O)CC[C@H](NC(=O)CCCCCCCCCCCCCCCCCCC(=O)O)C(=O)O)C(=O)O)NC(=O)[C@@H]1CCCN1C(=O)[C@H](CO)NC(=O)[C@H](C)NC(=O)[C@H](CC(=O)O)NC(=O)[C@H](CCCCN)NC(=O)CNC(=O)[C@@H]1CCCN1C(=O)[C@H](C)NC(=O)[C@H](CCC(=O)O)NC(=O)[C@@H]1CCCN1C(=O)[C@H](CCCCN)NC(=O)[C@@H]1CCCN1)C(=O)N[C@@H](CC(N)=O)C(=O)N[C@@H](Cc1c[nH]c2ccccc12)C(=O)N[C@@H](CC(C)C)C(=O)N[C@H](C(=O)N[C@@H](CCCNC(=N)N)C(=O)N[C@@H](CCC(N)=O)C(=O)N[C@@H](CCCNC(=N)N)C(=O)N(C)[C@@H](Cc1ccc(O)cc1)C(N)=O)[C@@H](C)O
B3: Compound A9 (peptide)
peptide: PKPEAPGKDASPEEWK([γGlu-γGlu-C20 diacid])RYYADARHYLNWLTRQR[NMeY]-NH2
modifications: N-terminus assumed
SMILES: CC(C)C[C@H](NC(=O)[C@H](Cc1ccc(O)cc1)NC(=O)[C@H](Cc1c[nH]cn1)NC(=O)[C@H](CCCNC(=N)N)NC(=O)[C@H](C)NC(=O)[C@H](CC(=O)O)NC(=O)[C@H](C)NC(=O)[C@H](Cc1ccc(O)cc1)NC(=O)[C@H](Cc1ccc(O)cc1)NC(=O)[C@H](CCCNC(=N)N)NC(=O)[C@H](CCCCNC(=O)CC[C@H](NC(=O)CC[C@H](NC(=O)CCCCCCCCCCCCCCCCCCC(=O)O)C(=O)O)C(=O)O)NC(=O)[C@H](Cc1c[nH]c2ccccc12)NC(=O)[C@H](CCC(=O)O)NC(=O)[C@H](CCC(=O)O)NC(=O)[C@@H]1CCCN1C(=O)[C@H](CO)NC(=O)[C@H](C)NC(=O)[C@H](CC(=O)O)NC(=O)[C@H](CCCCN)NC(=O)CNC(=O)[C@@H]1CCCN1C(=O)[C@H](C)NC(=O)[C@H](CCC(=O)O)NC(=O)[C@@H]1CCCN1C(=O)[C@H](CCCCN)NC(=O)[C@@H]1CCCN1)C(=O)N[C@@H](CC(N)=O)C(=O)N[C@@H](Cc1c[nH]c2ccccc12)C(=O)N[C@@H](CC(C)C)C(=O)N[C@H](C(=O)N[C@@H](CCCNC(=N)N)C(=O)N[C@@H](CCC(N)=O)C(=O)N[C@@H](CCCNC(=N)N)C(=O)N(C)[C@@H](Cc1ccc(O)cc1)C(N)=O)[C@@H](C)O
B4: Compound A7 (peptide)
peptide: PKPEAPK([γGlu-γGlu-C20 diacid])KDASPEEWNRYYADARHYLNWLTRQR[NMeY]-NH2
modifications: N-terminus assumed
SMILES: CC(C)C[C@H](NC(=O)[C@H](Cc1ccc(O)cc1)NC(=O)[C@H](Cc1c[nH]cn1)NC(=O)[C@H](CCCNC(=N)N)NC(=O)[C@H](C)NC(=O)[C@H](CC(=O)O)NC(=O)[C@H](C)NC(=O)[C@H](Cc1ccc(O)cc1)NC(=O)[C@H](Cc1ccc(O)cc1)NC(=O)[C@H](CCCNC(=N)N)NC(=O)[C@H](CC(N)=O)NC(=O)[C@H](Cc1c[nH]c2ccccc12)NC(=O)[C@H](CCC(=O)O)NC(=O)[C@H](CCC(=O)O)NC(=O)[C@@H]1CCCN1C(=O)[C@H](CO)NC(=O)[C@H](C)NC(=O)[C@H](CC(=O)O)NC(=O)[C@H](CCCCN)NC(=O)[C@H](CCCCNC(=O)CC[C@H](NC(=O)CC[C@H](NC(=O)CCCCCCCCCCCCCCCCCCC(=O)O)C(=O)O)C(=O)O)NC(=O)[C@@H]1CCCN1C(=O)[C@H](C)NC(=O)[C@H](CCC(=O)O)NC(=O)[C@@H]1CCCN1C(=O)[C@H](CCCCN)NC(=O)[C@@H]1CCCN1)C(=O)N[C@@H](CC(N)=O)C(=O)N[C@@H](Cc1c[nH]c2ccccc12)C(=O)N[C@@H](CC(C)C)C(=O)N[C@H](C(=O)N[C@@H](CCCNC(=N)N)C(=O)N[C@@H](CCC(N)=O)C(=O)N[C@@H](CCCNC(=N)N)C(=O)N(C)[C@@H](Cc1ccc(O)cc1)C(N)=O)[C@@H](C)O

molecular target: T1, NPY5R; assay: cell-based or functional assay

| NPY5R pEC50 | Binder |
| --- | --- |
| 8.3 -Log(EC50, M) | PKPEAPGK([γGlu-γGlu-C20 diacid])DASPEEWNRYY[dK]DLRHYLNWLTRQRF-NH2 [Compound A21] |
| 8.7 -Log(EC50, M) | B1 |
| 8.7 -Log(EC50, M) | PKPEAPGK([γGlu-γGlu-C20 diacid])DASPEEWNRYYADLRHYLNWLTRQRF-NH2 [Compound A13] |
| 8.6 -Log(EC50, M) | PKPEAPGK([γGlu-γGlu-C20 diacid])DASPEEWQRYYKDLRHYLNWLTRQRF-NH2 [Compound A23] |
| 8.5 -Log(EC50, M) | PKPEAPGK([γGlu-γGlu-C20 diacid])DASPEEWTRYYKDLRHYLNWLTRQRF-NH2 [Compound A26] |
| 7.1 -Log(EC50, M) | B2 |
| 8.7 -Log(EC50, M) | PKPEAPGK([γGlu-γGlu-C20 diacid])DASPKEWNRYYKDLRHYLNWLTRQRF-NH2 [Compound A20] |
| 8.4 -Log(EC50, M) | PKPEAPGK([γGlu-γGlu-C20 diacid])DASPEEWSRYYKDLRHYLNWLTRQRF-NH2 [Compound A25] |
| 9.1 -Log(EC50, M) | PKPEAPGKDASPEEWNRYYK([γGlu-dpeg-dpeg-γGlu-C20 diacid])DLRHYLNWLTRQRF-NH2 [Compound A16] |
| 8 -Log(EC50, M) | PKPEAPG[dK]([γGlu-γGlu-C20 diacid])DASPEEWNRYYADLRHYLNWLTRQRF-NH2 [Compound A15] |
| 6 -Log(EC50, M) | B3 |
| 6 -Log(EC50, M) | B4 |
| 8.7 -Log(EC50, M) | PKPEAPGK([γGlu-γGlu-C20 diacid])DASPEEWDRYYKDLRHYLNWLTRQRF-NH2 [Compound A24] |

molecular target: T2, NPY2R; assay: cell-based or functional assay

| NPY2R pEC50 | Binder |
| --- | --- |
| 10.4 -Log(EC50, M) | PKPEAPGK([γGlu-γGlu-C20 diacid])DASPEEWNRYY[dK]DLRHYLNWLTRQRF-NH2 [Compound A21] |
| 10.5 -Log(EC50, M) | B1 |
| 10.2 -Log(EC50, M) | PKPEAPGK([γGlu-γGlu-C20 diacid])DASPEEWNRYYADLRHYLNWLTRQRF-NH2 [Compound A13] |
| 10.4 -Log(EC50, M) | PKPEAPGK([γGlu-γGlu-C20 diacid])DASPEEWQRYYKDLRHYLNWLTRQRF-NH2 [Compound A23] |
| 10.7 -Log(EC50, M) | PKPEAPGK([γGlu-γGlu-C20 diacid])DASPEEWTRYYKDLRHYLNWLTRQRF-NH2 [Compound A26] |
| 9.6 -Log(EC50, M) | B2 |
| 10.5 -Log(EC50, M) | PKPEAPGK([γGlu-γGlu-C20 diacid])DASPKEWNRYYKDLRHYLNWLTRQRF-NH2 [Compound A20] |
| 10.9 -Log(EC50, M) | PKPEAPGK([γGlu-γGlu-C20 diacid])DASPEEWSRYYKDLRHYLNWLTRQRF-NH2 [Compound A25] |
| 10.2 -Log(EC50, M) | PKPEAPGKDASPEEWNRYYK([γGlu-dpeg-dpeg-γGlu-C20 diacid])DLRHYLNWLTRQRF-NH2 [Compound A16] |
| 10.2 -Log(EC50, M) | PKPEAPG[dK]([γGlu-γGlu-C20 diacid])DASPEEWNRYYADLRHYLNWLTRQRF-NH2 [Compound A15] |
| 9.6 -Log(EC50, M) | B3 |
| 9.7 -Log(EC50, M) | B4 |
| 10.5 -Log(EC50, M) | PKPEAPGK([γGlu-γGlu-C20 diacid])DASPEEWDRYYKDLRHYLNWLTRQRF-NH2 [Compound A24] |
